Source: PMC11743104, “Potent human antibodies against SpA5 identified by high-throughput single-cell sequencing of phase I clinical volunteers’ B cells” (iScience, 2024)

Key:
KLH-(N847-S857) = biological target: T1, KLH-(N847-S857) (Staphylococcus aureus, protein A …); experiment: ELISA; KLH-(N847-S857) coated at 2 ug/mL; Abs-9 from 2 ug/mL in PBST, diluted in half; 37 C 1 h; goat anti-human IgG Fc-HRP, OD450; SpA5 positive control, KLH negative control; settings: both partners purified
T1 construct: stretch N847-S857 of SpA5; they were put together from the eleven consecutive residues in the docking list; also called synthetic peptide N847-S857; source: synthetic peptide, coupled to keyhole limpet hemocyanin (KLH)
T1 chain: NEEQRNGFIQS

[1] = biological target: T2, S. aureus protein A in MRSA252 bacterial fluid (Staphylococcus aureus MRSA252 (stand-in …, UniProt P02976, strain)); experiment: affinity purification with mass spectrometry; supernatant of ultrasonically fragmented MRSA252 incubated overnight with Abs-9 (200 uL, 8 mg/mL), bound to Protein A beads 2 h, eluate to mass spectrometry; settings: one partner purified
T2 construct: staphylococcal protein A as it is present in strain MRSA252; The lysate of MRSA252 can hold only the native protein A, not the recombinant mutant SpA5; also called SpA; source: endogenous, MRSA252 ultrasonically fragmented and centrifuged, supernatant

[2] = biological target: T3, mutant staphylococcal protein A (SpA5) (Staphylococcus aureus, recombinant …, point mutant); experiment: BLI; Octet RED96, room temperature, PBS with 0.01% Tween 20; Abs-9 (8 ug/mL) loaded on Pro A biosensor; SpA5 in double dilutions 53 uM to 6.63 uM, 600 s association, 600 s dissociation; settings: both partners purified
T3 construct: staphylococcal protein A, mutant 'pentameric form' (SpA5), component of the recombinant five-component S. aureus vaccine; The residue numbers printed for SpA5 (E790 to N893) come from the docked model; also called antigen SpA5; pentameric form of S. aureus protein A; source: recombinant antigenic protein (vaccine component of rFSAV)

B1: human antibody Abs-9 (antibody, V domains shown)
VH: QVQLQQWGAGLLKPSETLSLTCAVYGGSFSGYYWSWIRQPPGKGLEWIGEINHSGSTNYNPSLKSRVTISVDTSKNQFSLKLSSVTAADTAVYYCARRSYGVKPFDYWGQGTLVTVSS
VL: SSELTQDPAVSVALGQTVRITCQGDSLRTYYASWYQQKPGQAPALVIYGKNNRPSGIPDRFFGSSSGNTASLTITGAQAEDEADYYCNSRDSSGNHHPVFGGGTKLTVL
notes: germline VH3-48 gene; also called IgG-9; source: 293F cells, transfected (heavy and light chain plasmids, PEI), purified from supernatant on Protein A beads
binding result (KLH-(N847-S857)): binds | binding result [1]: binds | Kd [2]: 1.96 nM | koff [2]: 5.63e-07 s⁻¹
